B1: activin A (ligand, human, UniProt P08476 311-426, looked up)
chain: GLECDGKVNICCKKQFFVSFKDIGWNDWIIAPSGYHANYCEGECPSHIAGTSGSSLSFHSTVINHYRMRGHSPFANLKSCCVPTKLRPMSMLYYDDGQNIIKKDIQNMIVEECGCS
notes: source: generated in house
B2: BMP7 (ligand, human, UniProt P18075 293-431, looked up)
chain: STGSKQRSQNRSKTPKNQEALRMANVAENSSSDQRQACKKHELYVSFRDLGWQDWIIAPEGYAAYYCEGECAFPLNSYMNATNHAIVQTLVHFINPETVPKPCCAPTQLNAISVLYFDDSSNVILKKYRNMVVRACGCH
notes: source: bought: R&D Systems
B3: BMP9 (ligand, human, UniProt Q9UK05 320-429, looked up)
chain: SAGAGSHCQKTSLRVNFEDIGWDSWIIAPKEYEAYECKGGCFFPLADDVTPTKHAIVQTLVHLKFPTKVGKACCVPTKLSPISVLYKDDMGVPTLKYHYEGMSVAECGCR
notes: source: generated in house
B4: GDF3 (ligand, human, UniProt Q9NR23 251-364, looked up)
chain: AAIPVPKLSCKNLCHRHQLFINFRDLGWHKWIIAPKGFMANYCHGECPFSLTISLNSSNYAFMQALMHAVDPEIPQAVCIPTKLSPISMLYQDNNDNVILRHYEDMVVDECGCG
notes: source: bought: R&D Systems
B5: BMP6 (ligand, human, UniProt P22004 375-513, looked up)
chain: SASSRRRQQSRNRSTQSQDVARVSSASDYNSSELKTACRKHELYVSFQDLGWQDWIIAPKGYAANYCDGECSFPLNAHMNATNHAIVQTLVHLMNPEYVPKPCCAPTKLNAISVLYFDDNSNVILKKYRNMVVRACGCH
notes: source: bought: R&D Systems
B6: BMP10 (ligand, human, UniProt O95393 317-424, looked up)
chain: NAKGNYCKRTPLYIDFKEIGWDSWIIAPPGYEAYECRGVCNYPLAEHLTPTKHAIIQALVHLKNSQKASKACCVPTKLEPISILYLDKGVVTYKFKYEGMAVSECGCR
notes: source: bought: R&D Systems
B7: activin B (ligand, human, UniProt P09529 293-407, looked up)
chain: GLECDGRTNLCCRQQFFIDFRLIGWNDWIIAPTGYYGNYCEGSCPAYLAGVPGSASSFHTAVVNQYRMRGLNPGTVNSCCIPTKLSTMSMLYFDDEYNIVKRDVPNMIVEECGCA
notes: source: generated in house
B8: GDF11 (ligand, human, UniProt O95390 299-407, looked up)
chain: NLGLDCDEHSSESRCCRYPLTVDFEAFGWDWIIAPKRYKANYCSGQCEYMFMQKYPHTHLVQQANPRGSAGPCCTPTKMSPINMLYFNDKQQIIYGKIPGMVVDRCGCS
notes: source: generated in house
B9: BMP4 (ligand, human, UniProt P12644 293-408, looked up)
chain: SPKHHSQRARKKNKNCRRHSLYVDFSDVGWNDWIVAPPGYQAFYCHGDCPFPLADHLNSTNHAIVQTLVNSVNSSIPKACCVPTELSAISMLYLDEYDKVVLKNYQEMVVEGCGCR
notes: source: bought: R&D Systems
B10: ALK3-Fc:ALK3-Fc homodimer (human ALK3 ECD fused to human IgG1 Fc) (Fc fusion, UniProt P36894 24-152, looked up)
chain: QNLDSMLHGTGMKSDSDQKKSENGVTLAPEDTLPFLKCYCSGHCPDDAINNTCITNGHCFAIIEEDDQGETTLASGCMKYEGSDFQCKDSPKAQLRRTIECCRTNLCNQYLQPTLPPVVIGPFFDGSIR
notes: not shown: Fc (human IgG1), C-terminal, kept

biological target: T1, IIB-Fc:ALK7-Fc heterodimer (human ActRIIB ECD-Fc paired with human ALK7 ECD-Fc) (human, UniProt Q13705-1 19-134; Q8NER5-1 25-113); test: SPR; same experiment as a1 (Biacore 8K, 37 °C, receptor dimers captured by anti-human Fc, HBS-EP+ with 350 mM NaCl added and 0.5 mg/mL BSA) but fitted with a bivalent analyte model (bold cells of Table 1); the first binding step is the one considered; conditions: both partners purified
T1 construct: activin receptor type IIB (ActRIIB) extracellular domain, human, aa 19-134 of NP_001097.2; activin receptor-like kinase 7 (ALK7) extracellular domain, human, aa 25-113 of NP_660302.2; copies: 1 + 1
T1 sequence (Q13705 19-134, chain 1 of 2): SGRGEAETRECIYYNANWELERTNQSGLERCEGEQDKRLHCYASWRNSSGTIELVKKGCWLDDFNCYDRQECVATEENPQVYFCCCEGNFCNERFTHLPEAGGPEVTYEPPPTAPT
T1 sequence (Q8NER5 25-113, chain 2 of 2): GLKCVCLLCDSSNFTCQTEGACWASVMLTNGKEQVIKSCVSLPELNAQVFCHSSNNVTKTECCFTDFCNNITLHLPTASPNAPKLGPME

Binder | Kd | koff | kon
B1 | 0.41 nM | 0.00815 s⁻¹ | 2e+07 M⁻¹ s⁻¹
B2 | > 10 nM | > 0.01 s⁻¹ | 700000 M⁻¹ s⁻¹
B3 | 2.3 nM | > 0.01 s⁻¹ | 7.1e+06 M⁻¹ s⁻¹
B4 | > 10 nM | > 0.01 s⁻¹ | 1.1e+06 M⁻¹ s⁻¹

biological target: T2, IIB-Fc:ALK3-Fc heterodimer (human ActRIIB ECD-Fc paired with human ALK3 ECD-Fc) (human, UniProt Q13705-1 19-134; P36894 24-152); test: as above; conditions: both partners purified
T2 construct: activin receptor type IIB (ActRIIB) extracellular domain, human, aa 19-134 of NP_001097.2; copies: 1 + 1

Binder | Kd | koff | kon
B1 | 0.164 nM | 0.00733 s⁻¹ | 4.47e+07 M⁻¹ s⁻¹
B3 | 1.76 nM | > 0.01 s⁻¹ | 9.7e+06 M⁻¹ s⁻¹
B4 | > 10 nM | > 0.01 s⁻¹ | 900000 M⁻¹ s⁻¹

biological target: T3, IIB-Fc:ALK4-Fc heterodimer (human ActRIIB ECD-Fc paired with human ALK4 ECD-Fc) (human, UniProt Q13705-1 19-134; P36896-1 24-126); test: as above; conditions: both partners purified
T3 construct: activin receptor type IIB (ActRIIB) extracellular domain, human, aa 19-134 of NP_001097.2; copies: 1 + 1
T3 sequence (Q13705 19-134, chain 1 of 2): as the sequence (Q13705 19-134, chain 1 of 2) above
T3 sequence (P36896 24-126, chain 2 of 2): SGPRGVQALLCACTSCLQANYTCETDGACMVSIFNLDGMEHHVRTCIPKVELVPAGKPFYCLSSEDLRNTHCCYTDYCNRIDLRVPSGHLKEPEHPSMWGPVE

Binder | Kd | koff | kon
B2 | > 10 nM | > 0.01 s⁻¹ | 800000 M⁻¹ s⁻¹
B3 | 1.36 nM | > 0.01 s⁻¹ | 8.9e+06 M⁻¹ s⁻¹
B4 | > 10 nM | > 0.01 s⁻¹ | 1.1e+06 M⁻¹ s⁻¹

biological target: T1, IIB-Fc:ALK7-Fc heterodimer (human …); test: SPR; Biacore 8K, 37 °C; Fc-fusion receptor dimers captured by anti-human Fc antibody on a CM5 chip (100-150 RU); ligands injected in two-fold dilution series (300 s association, 600 s dissociation); HBS-EP+ supplemented with 350 mM NaCl and 0.5 mg/mL BSA; 1:1 Langmuir model with a term for mass transport; conditions: both partners purified

Binder | Kd | koff | kon
B5 | 0.715 nM | 0.00424 s⁻¹ | 5.9e+06 M⁻¹ s⁻¹
B6 | 0.0706 nM | 0.00314 s⁻¹ | 4.45e+07 M⁻¹ s⁻¹
B7 | 0.0153 nM | 0.000114 s⁻¹ | 7.4e+06 M⁻¹ s⁻¹
B8 | 0.0474 nM | 0.000642 s⁻¹ | 1.35e+07 M⁻¹ s⁻¹

biological target: T4, IIB-Fc:IIB-Fc homodimer (human ActRIIB ECD fused to human IgG1 Fc) (human, UniProt Q13705-1 19-134); test: as above; conditions: both partners purified
T4 construct: activin receptor type IIB (ActRIIB) extracellular domain, human, aa 19-134 of NP_001097.2; Chains linked by disulfide bonds between the Fc domains; a form with murine IgG2a Fc was used only in mice; also called ActRIIB-Fc homodimer; ActRIIB-Fc; not shown: Fc (human IgG1), C-terminal, kept
T4 sequence (Q13705 19-134): as the sequence (Q13705 19-134, chain 1 of 2) above

Binder | Kd | koff | kon
B1 | 0.0109 nM | 8.45e-05 s⁻¹ | 7.8e+06 M⁻¹ s⁻¹
B3 | 0.0933 nM | 0.0011 s⁻¹ | 1.24e+07 M⁻¹ s⁻¹
B6 | 0.0065 nM | 0.000121 s⁻¹ | 1.86e+07 M⁻¹ s⁻¹
B7 | 0.0038 nM | 2.19e-05 s⁻¹ | 5.7e+06 M⁻¹ s⁻¹
B4 | 0.64 nM | 0.00188 s⁻¹ | 2.9e+06 M⁻¹ s⁻¹
B8 | 0.0039 nM | 7.56e-05 s⁻¹ | 1.94e+07 M⁻¹ s⁻¹
B9 | 5.43 nM | – | –

biological target: B5; test: as above; conditions: both partners purified

Binder | Kd | koff | kon
B10 | 9.03 nM | 0.00569 s⁻¹ | 600000 M⁻¹ s⁻¹

biological target: T2, IIB-Fc:ALK3-Fc heterodimer (human …); test: as above; conditions: both partners purified

Binder | Kd | koff | kon
B5 | 0.046 nM | 0.000214 s⁻¹ | 4.6e+06 M⁻¹ s⁻¹
B2 | 0.165 nM | 0.00197 s⁻¹ | 1.19e+07 M⁻¹ s⁻¹
B6 | 0.0335 nM | 0.000719 s⁻¹ | 2.15e+07 M⁻¹ s⁻¹
B7 | 0.0696 nM | 0.000335 s⁻¹ | 4.8e+06 M⁻¹ s⁻¹
B8 | 0.0485 nM | 0.000641 s⁻¹ | 1.32e+07 M⁻¹ s⁻¹
B9 | 0.0041 nM | – | –

biological target: T3, IIB-Fc:ALK4-Fc heterodimer (human …); test: as above; conditions: both partners purified

Binder | Kd | koff | kon
B1 | 0.0184 nM | 0.000139 s⁻¹ | 7.4e+06 M⁻¹ s⁻¹
B5 | 0.758 nM | 0.00573 s⁻¹ | 7.6e+06 M⁻¹ s⁻¹
B6 | 0.067 nM | 0.0028 s⁻¹ | 4.18e+07 M⁻¹ s⁻¹
B7 | 0.0153 nM | 8.07e-05 s⁻¹ | 5.3e+06 M⁻¹ s⁻¹
B8 | 0.0108 nM | 0.000164 s⁻¹ | 1.52e+07 M⁻¹ s⁻¹
